Paper PMC3513319, “The Importance of the Interaction of CheD with CheC and the Chemoreceptors Compared to Its Enzymatic Activity during Chemotaxis in Bacillus subtilis” (PLoS ONE, 2012)

T1: CheC (Bacillus subtilis, UniProt P40403 1-209)
T1 construct: CheC, CheY-P phosphatase, Bacillus subtilis; also called pTM18 (pGEX-6P-2::cheC2); source: E. coli, overexpressed as GST-CheC, purified (GSTrap), GST removed with PreScission protease; not shown: GST, N-terminal, cleaved
T1 sequence (looked up): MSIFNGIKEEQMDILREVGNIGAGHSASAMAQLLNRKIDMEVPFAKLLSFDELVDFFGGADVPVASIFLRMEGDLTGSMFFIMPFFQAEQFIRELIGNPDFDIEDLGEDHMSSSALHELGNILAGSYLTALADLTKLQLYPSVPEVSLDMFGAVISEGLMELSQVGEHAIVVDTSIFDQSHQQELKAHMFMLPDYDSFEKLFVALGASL

B1: GST-6xHis-CheD (enzyme, Bacillus subtilis, UniProt P40404 1-166, looked up)
chain: MSTTEAVVIKVGIADVKIARFPDTIRTSGLGSCVGLVLYDKEKQTAGLVHVMLPDSTLSKTAELNRAKYADTAVQTTIDMLIEAGCRKFALKAKLAGGSEMFKFKSTNDLMKIGPRNVLAIKEQLSLFNIPIISEDTGGSSGRTIEFEPKSCMLHIRTVKQGEKTI
notes: CheD, chemoreceptor glutamine deamidase, Bacillus subtilis; cheD gene amplified from OI1085 genomic DNA, cloned in pGEX-6P-2; Order of the tags by the printed name GST-6xHis-CheD: the 6xHis lies between GST and CheD; Held on the NTA chip by the 6xHis; also called pWY88 (pGEX-6P-2::6xHis-cheD2); source: E. coli, overexpressed, purified (GSTrap); not shown: GST, N-terminal, kept; 6xHis, N-terminal, …

Legend:
[1] = target: GST-CheD-F102E (Bacillus subtilis) (UniProt P40404); assay: pull-down; 80 µM GST-CheD or GST-CheD-F102E on glutathione beads; 100 µM CheC or receptor fragment added for 10 min; washed with TBS + 1% Triton X-100; eluted with glutathione; SDS-PAGE, Coomassie stain, densitometry
[2] = target: T1, CheC; assay: SPR; as a1, but with 20 µM CheY and 5 mM acetyl phosphate (CheYp) in the running buffer and in the injected CheC; details: both partners purified
[3] = target: T1, CheC; assay: SPR; Biacore 3000, NTA chip; 500 RU of GST-6xHis-CheD immobilised; CheC injected at different concentrations (80 µl, 20 µl/min); running buffer TKMD (50 mM Tris pH 8.0, 50 mM KCl, 5 mM MgCl2, 0.1 mM DTT); triplicate; details: both partners purified
[4] = target: T1, CheC; assay: SPR; as a1, but with 20 µM CheY in the running buffer and in the injected CheC; details: both partners purified

| Molecule | percent of the CheC bound by GST-CheD [1] [%] | Kd [2] [µM] | koff [2] [s⁻¹] | kon [2] [M⁻¹ s⁻¹] | Kd [3] [µM] | koff [3] [s⁻¹] | kon [3] [M⁻¹ s⁻¹] | Kd [4] [µM] | koff [4] [s⁻¹] | kon [4] [M⁻¹ s⁻¹] |
| --- | --- | --- | --- | --- | --- | --- | --- | --- | --- | --- |
| CheC (from UniProt P40403 1-209) (enzyme) | 10 |  |  |  |  |  |  |  |  |  |
| B1 |  | 0.546 | 0.0976 | 179000 | 3.95 | 0.0568 | 14700 | 7.01 | 0.0743 | 10600 |
